Results taken from patent US20140086913A1 (Gilead, published 2014).

T1: human DDR2 stably expressed on HEK293 cells (human, UniProt Q16832 22-855)
T1 construct: whole, on cells; also called hDDR2
T1 sequence (looked up): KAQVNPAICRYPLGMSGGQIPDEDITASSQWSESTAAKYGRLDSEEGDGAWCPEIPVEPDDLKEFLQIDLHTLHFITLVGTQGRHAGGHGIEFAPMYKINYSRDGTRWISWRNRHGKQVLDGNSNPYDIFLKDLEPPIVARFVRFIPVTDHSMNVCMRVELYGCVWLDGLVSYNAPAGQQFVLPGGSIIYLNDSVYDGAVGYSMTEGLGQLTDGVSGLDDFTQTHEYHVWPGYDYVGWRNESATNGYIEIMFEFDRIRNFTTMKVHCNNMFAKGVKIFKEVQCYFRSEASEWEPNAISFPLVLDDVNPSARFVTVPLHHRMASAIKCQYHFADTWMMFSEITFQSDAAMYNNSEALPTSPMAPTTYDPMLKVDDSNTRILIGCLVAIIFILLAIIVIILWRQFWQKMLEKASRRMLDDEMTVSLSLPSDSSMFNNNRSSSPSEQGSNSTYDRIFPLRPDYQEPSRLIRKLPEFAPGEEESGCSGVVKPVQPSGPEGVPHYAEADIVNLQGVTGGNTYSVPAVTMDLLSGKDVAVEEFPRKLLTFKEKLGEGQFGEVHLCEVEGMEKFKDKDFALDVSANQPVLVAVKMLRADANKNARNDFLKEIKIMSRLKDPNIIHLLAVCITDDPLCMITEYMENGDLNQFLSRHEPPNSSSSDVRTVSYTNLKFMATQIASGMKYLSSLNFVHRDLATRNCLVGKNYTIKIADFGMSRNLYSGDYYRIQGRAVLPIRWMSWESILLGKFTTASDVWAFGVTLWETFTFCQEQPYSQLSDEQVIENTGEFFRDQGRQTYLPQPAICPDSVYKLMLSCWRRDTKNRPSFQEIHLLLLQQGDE

T2: mouse ECD-DDR1-Fc (mouse; human, UniProt Q03146 22-414)
T2 construct: also called mouse DDR1-ECD; wild-type mouse DDR1-ECD; not shown: human IgG1 Fc of the vector pFuse-hIgG1-Fc1 (Invivogen)
T2 sequence: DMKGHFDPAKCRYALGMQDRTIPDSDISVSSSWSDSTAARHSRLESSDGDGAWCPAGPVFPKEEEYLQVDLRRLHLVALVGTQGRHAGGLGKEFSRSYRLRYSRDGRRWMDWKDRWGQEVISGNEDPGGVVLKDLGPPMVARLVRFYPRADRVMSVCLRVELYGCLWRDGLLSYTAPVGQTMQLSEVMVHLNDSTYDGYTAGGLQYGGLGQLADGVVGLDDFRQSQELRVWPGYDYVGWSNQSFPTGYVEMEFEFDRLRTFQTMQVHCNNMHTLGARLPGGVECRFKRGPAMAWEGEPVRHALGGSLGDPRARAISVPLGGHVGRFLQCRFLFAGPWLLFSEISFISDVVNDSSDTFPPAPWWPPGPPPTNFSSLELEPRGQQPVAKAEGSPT


Key:
[1] = biological target: DDR1 endogenously expressed on human cancer cell lines (T47D, HCT-116, A431) (human) (UniProt Q08345); experiment: flow cytometry, HCT116 cells
[2] = biological target: human DDR1 (isoform B) stably expressed on HEK293 cells (human) (UniProt Q08345); experiment: flow cytometry, HEK293/hDDR1
[3] = biological target: T1, human DDR2 stably expressed on HEK293 …; experiment: flow cytometry, HEK293/hDDR2
In short: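 Anti-DDR1 mAbs or isotype controls (2 μg per 1×10⁶ cells) were incubated with the stably transfected HEK293 cells at 4 °C for 1 hr, then detected with anti-IgG-PE at 4 °C for 1 hr. Binding was read as flow-cytometry MFI, with vector-only HEK293 background subtracted.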

[4] = biological target: DDR1 endogenously expressed on human cancer cell lines (T47D, HCT-116, A431) (human) (UniProt Q08345); experiment: flow cytometry, T47D cells
[5] = biological target: human DDR1 (isoform B) stably expressed on HEK293 cells (human) (UniProt Q08345); experiment: flow cytometry, HEK293/human DDR1, normalized to empty-vector cells
[6] = biological target: T3, DDR1ECD-Fc (R&D Systems, Catalog #2396-DR) (human, UniProt Q08345 21-416); experiment: ELISA, coated antigen, apparent KD
T3 construct: range 21-416; construct as described for the bought immunogen; also called human ECD-DDR1-Fc; Fc-ECD-DR1; not shown: human IgG1, Pro100-Lys330
In short: (§1)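 Plates coated overnight at 4° C with 2 μg/mL purified tagged DDR1 ECD protein, BSA-blocked; serially diluted murine anti-DDR1 mAbs bound 1 hr at room temperature, detected with anti-mouse IgG-HRP and TMB (OD 450). Apparent KD taken as C-parameter of 4-parameter logistic fit of OD versus antibody concentration.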

[7] = biological target: T4, human ECD-DDR1-His protein (human, UniProt Q08345 21-416); experiment: ELISA, coated antigen, apparent KD
T4 construct: also called huDDR1-ECD-His; DDR1ECD-6Xhis; not shown: His tag
In short: as §1

mouse ECD-DDR1-Fc = biological target: T2, mouse ECD-DDR1-Fc; experiment: ELISA, coated antigen, apparent KD
In short: as §1

T3 sequence (Q08345 other isoform, or with tags, fused parts or gaps limits assumed): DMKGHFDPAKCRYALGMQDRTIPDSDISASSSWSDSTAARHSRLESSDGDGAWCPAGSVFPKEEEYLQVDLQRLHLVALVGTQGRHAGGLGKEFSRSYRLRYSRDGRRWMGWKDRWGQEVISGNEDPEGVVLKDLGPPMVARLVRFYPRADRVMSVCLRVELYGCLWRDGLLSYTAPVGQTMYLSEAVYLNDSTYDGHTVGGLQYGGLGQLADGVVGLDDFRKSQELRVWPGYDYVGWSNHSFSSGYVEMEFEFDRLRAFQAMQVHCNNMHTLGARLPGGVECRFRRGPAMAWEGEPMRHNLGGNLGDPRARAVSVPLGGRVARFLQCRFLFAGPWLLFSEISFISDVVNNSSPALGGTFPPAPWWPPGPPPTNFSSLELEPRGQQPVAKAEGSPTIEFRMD
T4 sequence (Q08345 21-416): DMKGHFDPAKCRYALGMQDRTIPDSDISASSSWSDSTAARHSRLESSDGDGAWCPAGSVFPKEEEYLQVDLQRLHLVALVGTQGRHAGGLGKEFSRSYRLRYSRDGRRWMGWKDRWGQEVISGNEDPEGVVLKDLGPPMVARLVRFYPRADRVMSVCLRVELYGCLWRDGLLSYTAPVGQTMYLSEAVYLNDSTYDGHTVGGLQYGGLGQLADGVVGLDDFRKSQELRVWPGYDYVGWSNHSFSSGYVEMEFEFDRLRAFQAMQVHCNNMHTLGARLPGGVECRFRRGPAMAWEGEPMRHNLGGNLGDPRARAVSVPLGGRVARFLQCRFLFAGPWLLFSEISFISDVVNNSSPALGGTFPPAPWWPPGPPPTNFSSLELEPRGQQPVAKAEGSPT

MFI [1] [MFI] | MFI [2] [MFI] | MFI [3] [MFI] | MFI [4] [MFI] | MFI [5] [MFI] | Kd [6] [nM] | Kd [7] [nM] | Kd (mouse ECD-DDR1-Fc) [nM] | Binder
1490 | 14400 | 289 | 5990 | 14400 | 0.154 | 0.181 | – | AB2004 (antibody, V domains shown, mouse hybridoma mAb) VH: DVHLQESGPDLVKPSQSLSLTCTVTDYSITSGYGWHWIRQFPGNKLEWMGYIHYGGSTKYNSSLKSRISITRDTSKNQFFLQLKSVTTDDTGTYYCATSGNYGFAYWGQGTLVTVSA VL: DIVLTQSPTSLAVSLGQRATMSCRASESVDDYGTSFMHWYQQKPGQPPKLLIYRASNLESGIPARFSGSGSRADFTLSINPVEPDDVATYYCQQSNEDPFTFGSGTKLEIKR
1270 | 12500 | 265 | 2210 | 12500 | 0.561 | 0.617 | – | AB2041 (antibody, V domains shown, mouse hybridoma mAb) VH: QVQLHQSGSELAKPGASVKMSCKASGYIFTTYWIHWLKQRPGQGLEWIGFINPDTDYTEYNQKFKDKATLTADKSSNTAYVQLSSLTSEDSAVYYCARGNYGYDGLVYWGLGTLVTVSA VL: SIVMTQTPKFLLVSAGDRVTITCKASQSVSTDVAWYQQKPGQSPKLLIYYASNRYTGVPDRFTGSGYGTDFTFTISTVQAEDLAVYFCQQDYNSYTFGGGTKLEIKR
1730 | 17800 | 647 | 6730 | – | 0.431 | 0.398 | 33.7 | AB2010 (antibody, V domains shown, mouse hybridoma mAb) VH: QVQLKQSGPGLVQPSQSLSITCTVSGFSFTGYGIHWVRQSPGKGLEWLGVIWSGGITDYNAAFISRLSISMDSSKGQVFFKMNSLQANDTAIYYCARRSTTVVADYAMDYWGQGTSVTVSS VL: SIVMTQTPKFLLVSAGDRVTITCKASQSVSNDVAWYQQKPGQSPKLLIYYASNRYTGVPDRFTGSGYGTDFTFTINTVQAEDLAVYFCQQDYTSPLTFGAGTKLELKR
1310 | 6020 | 133 | 3880 | 6020 | 0.287 | 0.275 | 1.19 | AB2092 (antibody, V domains shown, mouse hybridoma mAb) VH: QIQLVQSGPELKKSGETVKISCKASGYTFTDYGMNWVKQAPGKGLKWMGWINTYTGKSTYADDFKGRFAFSLETSASTTYLQITNLKNEDMATYFCARWADYFGSSYLFASWGQGTLVTVSA VL: DVLMTQTPLSLPVSLGDQASISCRSSQSIVHSDGNTYLEWYLQKPGQSPKLLIYKVSNRFSGVPDRFSGSGSGTDFTLKISRVEAEDLGIYYCFQGSHVPWTFGGGTKLEIKR
1490 | 8020 | 143 | 4460 | 8020 | 0.346 | 0.205 | 2.37 | AB2039 (antibody, V domains shown, mouse hybridoma mAb; also called AB0039) VH: EVQLVESGGGLVQPGGSLKFSCAASGFTFSSYGMSWVRQTPDKRLELVAIINSHGFSTYYPDSVKGRFTISRDNAKNTLYLQMSSLKSEDTAIYYCARGGYGNYGMDYWGQGTSVTVSS VL: DIVLTQSPASLAVSLGQRATISCRASESVDSYGNSFMHWYQQKVGQPPKLLIFRASNIESGIPARFSGSGSRTDFTLTINSVEADDVATYYCQQSNEAPYTFGGGTKLEIKR
1480 | 7490 | 380 | 4750 | 7490 | 0.374 | 0.554 | 10.9 | AB2078 (antibody, V domains shown, mouse hybridoma mAb) VH: EIQLQQSGPELVNPGASVKVSCKASGYSFTDYNMYWVKQSHGKSLEWIGYIDPYNGGTSYNQKFKGKATLTVDKSSSTAFMHLNSLTSEDSAVYYCAREYYGSRLWYFDVWGAGTAVTVSS VL: DIVMTQSPSSLAMSVGQKVTMSCKSSQSLLNRNNQKNYLAWYQQKPGQSPKLLVYFASTRESGVPDRFIGSGSGTDFTLTLSSVRAEDLAENFCQQHYSTPFTFGSGTRLEIKR
